Molecular target: FXR1-CFP (human)
Test: FRET or BRET

FXR1-CFP (natural protein), sequence (P51114 2-621): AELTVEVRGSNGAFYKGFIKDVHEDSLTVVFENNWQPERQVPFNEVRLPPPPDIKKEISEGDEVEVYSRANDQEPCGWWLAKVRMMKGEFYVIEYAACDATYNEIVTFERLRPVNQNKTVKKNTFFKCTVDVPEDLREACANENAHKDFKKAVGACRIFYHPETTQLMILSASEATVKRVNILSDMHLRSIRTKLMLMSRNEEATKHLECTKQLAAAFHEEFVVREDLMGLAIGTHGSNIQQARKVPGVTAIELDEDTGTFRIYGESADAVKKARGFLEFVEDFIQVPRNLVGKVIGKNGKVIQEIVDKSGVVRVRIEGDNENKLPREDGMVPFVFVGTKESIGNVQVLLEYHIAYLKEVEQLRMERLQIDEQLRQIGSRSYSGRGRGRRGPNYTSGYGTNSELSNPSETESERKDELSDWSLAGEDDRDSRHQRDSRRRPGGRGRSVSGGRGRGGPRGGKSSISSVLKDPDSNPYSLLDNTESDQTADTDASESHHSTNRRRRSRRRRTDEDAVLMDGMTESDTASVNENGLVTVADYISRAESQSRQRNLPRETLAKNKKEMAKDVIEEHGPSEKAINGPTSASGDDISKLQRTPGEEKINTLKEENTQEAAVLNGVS
YFP-FXR2_(14-399), sequence (P51116 14-399): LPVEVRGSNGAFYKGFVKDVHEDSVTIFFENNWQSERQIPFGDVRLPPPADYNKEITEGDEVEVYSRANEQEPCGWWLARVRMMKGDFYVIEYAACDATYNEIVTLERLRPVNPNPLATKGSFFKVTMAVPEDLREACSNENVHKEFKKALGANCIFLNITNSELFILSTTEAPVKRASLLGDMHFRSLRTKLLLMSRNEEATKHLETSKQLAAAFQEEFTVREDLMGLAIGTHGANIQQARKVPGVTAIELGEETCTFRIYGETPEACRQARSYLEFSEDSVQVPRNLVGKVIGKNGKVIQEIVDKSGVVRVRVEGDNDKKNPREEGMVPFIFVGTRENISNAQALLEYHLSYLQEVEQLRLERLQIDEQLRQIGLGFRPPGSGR
SFPQ-YFP (natural protein), sequence (P23246 whole entry): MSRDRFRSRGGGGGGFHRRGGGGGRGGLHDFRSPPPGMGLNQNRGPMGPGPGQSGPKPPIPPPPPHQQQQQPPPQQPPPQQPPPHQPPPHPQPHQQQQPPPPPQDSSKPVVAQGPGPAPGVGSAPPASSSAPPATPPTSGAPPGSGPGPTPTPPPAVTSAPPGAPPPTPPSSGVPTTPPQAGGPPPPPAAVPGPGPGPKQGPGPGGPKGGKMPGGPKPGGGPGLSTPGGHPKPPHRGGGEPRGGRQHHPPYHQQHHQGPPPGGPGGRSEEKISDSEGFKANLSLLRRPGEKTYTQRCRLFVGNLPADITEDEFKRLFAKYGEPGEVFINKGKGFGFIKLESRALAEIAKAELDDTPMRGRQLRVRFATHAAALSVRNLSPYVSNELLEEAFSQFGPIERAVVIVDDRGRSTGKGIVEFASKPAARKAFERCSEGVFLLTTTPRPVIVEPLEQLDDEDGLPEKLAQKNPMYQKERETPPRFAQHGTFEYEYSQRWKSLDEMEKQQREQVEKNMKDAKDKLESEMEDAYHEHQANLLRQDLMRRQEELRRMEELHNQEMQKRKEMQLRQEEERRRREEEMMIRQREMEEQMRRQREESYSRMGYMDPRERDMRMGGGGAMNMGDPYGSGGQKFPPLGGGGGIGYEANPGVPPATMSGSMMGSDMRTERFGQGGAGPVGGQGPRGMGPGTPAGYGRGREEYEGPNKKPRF

| Substance | FRET efficiency |
| --- | --- |
| FXR1-CFP (natural protein) | 8.9% |
| SFPQ-YFP (natural protein) | 9.1% |
| YFP-FMRP_(1-380) (from UniProt Q06787 1-380) (domain or fragment) | 9.7% |
| YFP-FXR2_(14-399) (from UniProt P51116 14-399) (domain or fragment) | 8.3% |

— paper PMC12118398
